This data set concerns the target HIV-1 Tat (E. coli, purified) (HIV-1, UniProt P12506). Nature of the data set: NMR titration (1D 1H imino). To be noted: protein: recombinant; tags: N-terminal His6, stated as cleaved after purification.

For GGGAGCUUGAUCCCGGAAACGGUCGAUCGCUCCC (structured_RNA) [HIV Tat RNA aptamer (unlabeled)], the binding result is given as “binds”.

Values taken from PMC12339945.
